Source: patent EP4703383A1

B1: H-PR-B03 (antibody, V domains shown)
VH: QVQLKESGPGLVAPSQSLSITCTVSGFSLTGFGVNWFRQPPGRGLEWLGMIWGDGSTDYNSALKSRLSISKDNSKSQVFLKMNSLQTDDTARYYCARVLYYYGGNSFAYWGQGTLVTVSA
VL: DVLMTQTPLSLPVSLGDQASISCRSSQSIVHSNGNTYLEWYLQKPGQSPKLLIYKVSSRFSGVPDRFSGSGSGTDFTLKISRVEAEDLGVYYCFQGSHVPYTFGGGTKLEIK
B2: HP-PR02E11 (antibody, V domains shown)
VH: QVQLQQSGPGLVAPSQSLSITCTVSGFSLTSYGVNWVRQPPGKGLEWLGIIGAGGSTNYNSALMSRLSISKDNSKSQVFLKMNSLQTDDTAMYYCARSLYYYGSSSFAYWGQGTLVTVSA
VL: DIVMTQTPLSLPVSLGDQASISCRSSQSIVHSNGNTYLEWYLQKPGQSPKLLIYKVSNRFSGVPDRFSGSGSGTDFTLKISRVEAEDLGVYYCFQGSHVPWTFGGGTKLELK
B3: H-PR-B06 (antibody, V domains shown)
VH: DVKLVESGGGLVKPGGSLKLACAASGFTFSSYTMSWVRQTPEKRLEWVATISSGGSYTYYPDSVKGRFTISRDNAKNTLYLQLSSLKSEDTAMYYCTRDRYYSTTPDWYFDVWGAGTTVTVSS
VL: DIVLTQSPATLSVTPGDSVSLSCRATQIIFNNLHWYQQKSHESPRLLITYTSQSISGIPSRFSGSGSGTDFTLTINSVETEDFGMYFCQQSNTWPRTFGGGTKLEIK
B4: HP-PR02H02 (antibody, V domains shown)
VH: EVMLVESGGGLVKPGGSLKLACAASGFTFSSYTMSWVRQTPEKRLEWVATISSGGSYTYYPDSVKGRFTISRDNAKNTLYLQLSSLKSEDTAMYYCTRDRYYSTTPDWYFDVWGAGTTLTVSS
VL: DIVITQSPATLSVTPGDSVSLSCRATQIIFNNLHWYQQKSHESPRLLITYTSQSISGIPSRFSGSGSGTDFTLTINSVETEDFGMYFCQQSNTWPRTFGGGTKLEIK
B5: HP-PR01C02 (antibody, V domains shown)
VH: DVHLVESGPGLVKPSQSLSLTCTVTGYSITSDYAWNWIRQFPGNKLEWMGYISYSGSTGYSPSLKSRVSITRDTSKNQFFLQLNSVTTEDTATYFCARNNWAFDFWGQGTTLTVSS
VL: DIVLTQSPAIMSASPGEKVTMTCSASSSVNYMHWYQQKSGTSPKRWIYDTSKLASGVPARFSGSGSGTSYSLTISSMEAEDAATYYCQQWSSNPLTFGAGTKLELK
B6: HP-PR01B01 (antibody, V domains shown)
VH: EVHLVESGPDLVKPSQSLSLTCTVTGYSITSGYNWHWIRQFPGNKLEWMGYIHYSGSTKYDPSLKSRISFTRDTSRNQFFLQLNSVTTEDRATYYCARSEAGGYSWFAYWGQGTLVTVSA
VL: DIVMTQSPAIMSASPGEKVTMACSASSSVNYMHWYQQKSGTSPKRWIYDTSKLASGVPARFSGSGSGTSYSLTISSMEAEDAATYYCQQWSSNPLTFGAGTKLELK
B7: P-PR-C07H (antibody, V domains shown)
VH: EVQLQQSGAELVRPGTSVQISCKASGYTFTNNWLAWIKQRPGHGLEWIGDIYPGGVYTNYNEKFKGKATLTADTSSSTAYMQLSSLTSEDSAVYFCYYGDFWSAYWGQGTLVTVSA
VL: DIVMTQAAPSVPVTPGESVSISCRSSKSLLHSNGNTYLYWFLQRPGQSPQLLIYRMSNLASGVPDRFSGSGSGTAFTLRISRVEAEDVGVYYCMQHLEYPLTFGAGTKLELK
B8: P-PR-B09W (antibody, V domains shown)
VH: QVQLQQPGSELVRPGASVKLSCKASGFTFTTFWVHWVKQRPGQGLEWIGNISPGGTSTNYDEKFKSKASLTVDTFSNTAYMQLSSLTSEDSAVYYCIRHSGNYFNAMDYWGQGTSVTVSS
VL: DIVMTQAAPSVPVTPGESVSISCRSSKSLLHSNGNTYLYWFLQRPGQSPQLLIYRMSNLASGVPDRFSGSGSGTAFTLRISRVEAEDVGVYYCMQHLEYPLTFGAGTKLELK
B9: P-PR-C02H (antibody, V domains shown)
VH: QVQLQQPGSELVRPGASVRLSCKASGFTFTTYWVHWVKQRPGQGLEWIGNISPGSGSTNYDEKFKSKASLTVDTFSNTAYMQLSSLTSEDSAVYYCIRHSGNYFNAMDYWGQGTSVTVSS
VL: DIVMTQATPSVPVAPGESVSISCRSSKSLLHTNGYTYLYWFLQRPGQSPQLLIYRMSNLASGVPDRFSGSGSGTAFTLRISRVEAEDVGVYYCMQHLEYPLTFGAGTKLELK
B10: P-PR-C04W (antibody, V domains shown)
VH: QVQLQQPGSELVRPGASVKLSCKASGFTFTTYWVHWVKQRPGQGLEWIGNISPGSGSTNYDEKFKSKASLTVDTFSNTAYMQLSSLTSEDSAVYYCIRHSGNYFNAMDYWGQGTTVTVSS
VL: DIVMTQAAPSVPVTPGESVSISCRSSKSLLHSNGNTYLYWFLQRPGQSPQLLIYRMSNLASGVPDRFSGSGSGTAFTLRISRVEAEDVGVYYCMQHLEYPLTFGAGTKLELK
B11: P-PR-G02W (antibody, V domains shown)
VH: QVQLQQPGSELVRPGASVKLSCKASGFTFTTYWVHWVKQRPGQGLEWIGNISPGSGSTNYDEKFKSKASLTVDTFSNTAYMQLSSLTSEDSAVYYCIRHSGNYFNAMDYWGQGTTLTVSS
VL: DIVMTQAAPSVPVTPGESVSISCRSSKSLLHSNGNTYLYWFLQRPGQSPQLLIYRMSNLASGVPDRFSGSGSGTAFTLRISRVEAEDVGVYYCMQHLEYPLTFGAGTKLELK
B12: P-PR-D01H (antibody, V domains shown)
VH: QVQLQQPGSELVRPGASVKLSCKASGFTFTTYWVHWVKQRPGQGLEWIGNISPGGGSTNYDEKFKSKASLTVDTFSNTAYMQLGSLTSEDSAVYYCIRHSGNYFNAMDYWGQGTTLTVSS
VL: DIVMTQAAPSVPVTPGESVSISCRSSKSLLHSNGNTYLYWFLQRPGQSPQLLIYRMSNLASGVPDRFSGSGSGTAFTLRISRVEAEDVGVYYCMQHLEYPLTFGAGTKLELK
B13: P-PR-C08H (antibody, V domains shown)
VH: QVQLQQPGSELVRPGASVKLSCKASGFTFTTYWVHWVKQRPGQGLEWIGNISPGSGSTNYDEKFKSKASLTVDTFSNTAYMQLSSLTSEDSAVYYCIRHSGNYFNAMDYWGQGTTVTVSS
VL: DIVMTQAAPSVPVTPGESVSISCRSSKSLLHSNGNTYLYWFLQRPGQSPQLLIYRMSNLASGVPDRFSGSGSGTAFTLRISRVEAEDVGVYYCMQHLEYPLTFGAGTKLELK
B14: P-PR-D06H (antibody, V domains shown)
VH: QVQLQQPGSELVRPGASVKLSCKASGFTFTTFWVHWVKQRPGQGLEWIGNISPGSTSTNYNEKFKNKASLTVDTFSNTAYMQLSSLTSEDSAVYYCIRHSGNYFNAMDYWGQGTTLTVSS
VL: DIVMTQAAPSVPVTPGESVTISCRSSKSLLHSNGKTYLYWFLQRPGQSPQLLIYWMSNLASGVPDRFSGSGSGTAFTLRISRVEAEDVGVYYCMQHLEYPFTFGVGTKLELK

Key:
Assay in all cases: ELISA, coated antigen 1 ug/mL, antibody 10 ug/mL
[1] = molecular target: extracellular segment of the PRLR protein of cynomolgus monkey with avi-(his)6 tag (cynoPRLR-ECD-avi-his) (cynomolgus monkey)
[2] = molecular target: extracellular segment of human PRLR protein with avi-(his)6 tag (hPRLR-ECD-avi-his) (human) (UniProt P16471)
[3] = molecular target: murine PRLR extracellular domain (mouse) (UniProt Q08501)
Chain of murine PRLR extracellular domain (mouse) (Q08501 20-229): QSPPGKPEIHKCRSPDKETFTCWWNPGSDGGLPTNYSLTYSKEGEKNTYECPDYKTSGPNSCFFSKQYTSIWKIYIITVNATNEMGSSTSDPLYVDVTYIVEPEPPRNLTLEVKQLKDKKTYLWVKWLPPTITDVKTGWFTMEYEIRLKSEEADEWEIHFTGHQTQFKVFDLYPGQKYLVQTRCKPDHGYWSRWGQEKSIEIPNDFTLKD

Chain of extracellular segment of the PRLR protein of cynomolgus monkey with avi-(his)6 tag (cynoPRLR-ECD-avi-his) (cynomolgus monkey) (chain, as listed by the source limits assumed): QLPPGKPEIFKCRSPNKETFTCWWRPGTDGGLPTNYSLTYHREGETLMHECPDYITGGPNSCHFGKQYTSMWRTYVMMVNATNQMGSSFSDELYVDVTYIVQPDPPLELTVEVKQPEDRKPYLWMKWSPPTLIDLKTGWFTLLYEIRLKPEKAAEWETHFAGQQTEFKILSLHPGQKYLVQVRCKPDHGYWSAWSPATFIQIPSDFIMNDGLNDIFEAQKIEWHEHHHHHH
Chain of extracellular segment of human PRLR protein with avi-(his)6 tag (hPRLR-ECD-avi-his) (human) (P16471 other isoform, or with tags, fused parts or gaps): as the sequence (chain, as listed by the source limits assumed) above, with V76I, T110A, M125I, T158I, I207T counted along it

| Binder | absorbance at 450nm [1] | absorbance at 450nm [2] | absorbance at 450nm [3] |
| --- | --- | --- | --- |
| B1 | 3.75 | 4 | 0.382 |
| B2 | 3.65 | 3.91 | 3.44 |
| B3 | 0.435 | 3.94 | 0.334 |
| B4 | – | 3.12 | 0.223 |
| B5 | 1.52 | 1.45 | 0.273 |
| B6 | – | 0.638 | 0.161 |
| B7 | 2.16 | – | 0.102 |
| B8 | 2.51 | – | 0.141 |
| B9 | 2.3 | – | 0.115 |
| B10 | 2.25 | 2.16 | 0.09 |
| B11 | 2.51 | 2.25 | 0.09 |
| B12 | 2.37 | – | 0.118 |
| B13 | 2.25 | – | 0.094 |
| B14 | 2.51 | – | 2.52 |
